The values that follow come from patent EP4644426A1 (Gan & Lee Pharmaceuticals Co., Ltd., dated 2025).

Experiment [1] deals with human FXIa factor (human) (UniProt P03951). Briefly: Biacore 8K (SPR), human FXIa in 2-fold dilution series. For orientation: In SPR one partner is held on a chip, and binding of the other changes the refractive index at the surface.
Experiment [2] has the same target. Briefly: cell-based or functional assay.
For experiment [3] the target is unchanged. Briefly: cell-based or functional assay. This is another data set of the same source.
Experiment [4] shares this target. Nature of the experiment: cell-based or functional assay. The source holds these as a separate data set.
Experiment [5] addresses T1, human FXIa factor (human, UniProt P03951 19-625). Nature of the experiment: cell-based or functional assay.
For experiment [6], the target named is T1, human FXIa factor. Briefly: Biacore 8K (SPR), human FXIa in 2-fold dilution series.
In experiment [7] the target is T1, human FXIa factor. Nature of the experiment: cell-based or functional assay. This is another data set of the same source.
In experiment [8] the target is T1, human FXIa factor. Briefly: cell-based or functional assay. The source holds these as a separate data set.

Read-outs that look alike come from different tables or passages of the source.

Usually Kd stands for the free concentration of one partner at which half of the binding sites on the other are occupied at equilibrium, for simple one-to-one binding. High values mean lower affinity, low ones higher affinity. For orientation: koff means a measure of how fast the partners let go of each other. A higher koff goes with a short-lived complex. As usually defined, the kon is a measure of how fast the partners come together. Lower therefore signals slower complex formation. On to MAA868 (antibody), for which, in experiment [1], the Kd was found to be 0.00717 nM, the koff amounted to 8.48e-06 s⁻¹ and the kon turned out to be 1.18e+06 M⁻¹ s⁻¹. Besides, in experiment [2], the FXIa Kit Activity Assay (nM), IC50 (First Batch) is 11.2 nM; the FXIa Kit Activity Assay (nM), IC50 (Second Batch) is 11.7 nM; the FXIa Kit Activity Assay (nM), IC50 (Third Batch) was 13.3 nM; the FXIa kit Activity Assay (nM), IC50 was found to be 28.9 nM. For the same molecule, in experiment [2], the IC50(nM) from S2366 Assay was found to be 67.3 nM, the IC50(nM) from S2366 assay (First Batch) came out at 118 nM, the IC50(nM) from S2366 assay (Fourth Batch) is 64.7 nM and the IC50(nM) from S2366 assay (Second Batch) was determined as 83.6 nM. In experiment [2], this molecule yielded an IC50(nM) from S2366 assay (Third Batch) of 106 nM and an OD405nm, S2366 activity assay, antibody at 20µg/mL of 0.449 OD405nm. For the same molecule, in experiment [3], the FXIa kit Activity Assay (nM), IC50 worked out at 12.7 nM. In experiment [4], this molecule had an IC50(nM) from S2366 Assay of 44.9 nM.

B1: humanized antibody 29E10C4-1 (antibody, human IgG1, kappa, V domains shown)
VH: QVQLVQSGAEVKKPGSSVKVSCKASGGTFSDYFIEWVRQAPGQGLEWMGVINPGNDVTNYNEKFKGRVTITADKSTSTAYMELSSLRSEDTAVYYCARSAGNYENSMDFWGQGTTVTVSS
VL: EIVLTQSPATLSLSPGERATLSCKASQSVSNDVGWYQQKPGQAPRLLIYYTSNRYTGIPARFSGSGSGTDFTLTISSLEPEDFAVYYCQQDYHFPLTFGGGTKVEIKR
notes: 29E10C4-1 is the only humanized form of that clone
Consider B1, for which, in the experiment with human FXIa factor [5], the “IC50 (nM) from S2366 Assay” value was 24.5 nM. In the experiment with human FXIa factor [6], this molecule came in with a Kd of 0.00145 nM, a koff of 1.96e-05 s⁻¹ and a kon of 1.35e+07 M⁻¹ s⁻¹. Besides, the “FXIa kit Activity Assay (nM), IC50” value in the experiment with human FXIa factor [7] is 0.545 nM.

B2: 17E10-sy (antibody, V domains shown)
VH: EVQLEESGPGLVKPSQSLSLTCSVTGYSITSGFYWNWIRQFPGNKLEWMGYISFDGRHNYNPSLKNRFSITRDTSKNQFFLKLTSVTAEDTATYYCARDLITTVYYYPMDYWGQGTSVTVSS
VL: DIVMTQSHKFMSTSVGDRVSITCKASQDVGTAVDWYQQKTGQSPKLLIYWASTRHTGVPDRFTGSGSGTDFTLTISNVQSEDLADYFCQQYSNYPLTFGAGTKLELK
In the case of B2, the “OD405nm, S2366 activity assay, antibody at 20µg/mL” value (“OD405nm, S2366 activity assay” below) with human FXIa factor [8] came out at 0.189 OD405nm.

B3: 14F3-sy (antibody, V domains shown)
VH: QVQLQQSGAELVRPGTSVTVSCKASGYAFSNYLIEWVNQRPGQGLEWIGVINPGSGYTNYNENFKDKATLTADTSSSTAYMQLSSLTSDDSAVYFCARTYGKYGGAMDFWGQGTSVTVSS
VL: DIVMTQTPKFLLVSAGDRVTITCKASQSVSNDVAWYQQKPGQSPKLLIYYISNRYTGVPDRFTGSGYGTDFTFTINTVQAEDLAVYFCQQDYSSPPTFGGGTKLEIK
On to B3, for which, in the experiment with human FXIa factor [8], the “OD405nm, S2366 activity assay” value was 0.211 OD405nm.

B4: 17E3C10-sy (antibody, V domains shown)
VH: QVKLQESGPELRKPGETVYISCKASGYTFTNYGVNWVKQAPGKGLKWMGWINTYTGEPIYADDFKGRFAFSLETSANTAYLQISNLTNEDTATYFCARLYLYGNTYDYYAMDYWGQGTSVTVSS
VL: DIVLTQTPSSMYASLGERVTITCKASQDISTYLSWFQQKPGKSPKTLIYRANRLIDGVPSRFSGSGSGQDFSLTISSLEYEDMGVYYCLQYDDLNTFGGGTKLEIK
As to B4, the “OD405nm, S2366 activity assay” value with human FXIa factor [8] came to 0.414 OD405nm.

B5: 29E10C4-sy (antibody, V domains shown)
VH: QVKLEESGAELVRPGTSVKVSCKASGYAFTDYFIEWIKQRPGQGLEWIGVINPGNDVTNYNEKFKGKATLTVDKSSTTAYMQLSSLTSDDSAVYFCTRSAGNYENSMDFWGQGTSVTVSS
VL: DIVLTQSPKFLLVSAGDRVTITCKASQSVSNDVGWYQQKPGQSPKLLIYYTSNRYTGVPDRFTGSGYGTDFTFTISSVQAEDLAVYFCQQDYHFPLTFGAGTKLELK
As to B5, in the experiment with human FXIa factor [8], the “OD405nm, S2366 activity assay” value is 0.198 OD405nm. In the experiment with human FXIa factor [7], the “FXIa kit Activity Assay (nM), IC50” value amounted to 0.248 nM.

B6: 11E8-sy (antibody, V domains shown)
VH: EVKLQESGPELVKTGASVKISCKASGYSFTGYFMNWVKQSHGKSLEWIGFINCYNGATSYNQKFKGKATFTVDASSSSAYMQFNSLTSEDSAVYYCARTISTGDSFDYWGQGSTLTVSS
VL: DIVMTQSTSYLSVSLGGRVTITCKASDHINNWLAWYQQKPGDAPSLLISGASRLETGVPSRFSGSGSGKDYTLSITSLQTEDVATYYCQQYWTTPFTFGSGTKLEIK
For the molecule B6, the “OD405nm, S2366 activity assay” value in the experiment with human FXIa factor [8] was 0.294 OD405nm.
